Laboratory results: PMC11033526 (Journal of Biochemistry, 2023)
No end group written: not given here. *: point of attachment. Biotin = O=C1N[C@H]2[C@H](CS[C@H]2CCCCC(=O)*)N1

Experiments:
mouse calmodulin [1] = molecular target: T1, mouse calmodulin (mouse, UniProt P0DP26 1-149); assay: SPR; Biacore 2000; biotinylated T1r peptides on a CAP chip (Biotin CAPture Kit); mCaM injected, 2-fold dilutions from 50 μM, +Ca2+ (1 mM CaCl2), 25°C, 30 μl/min; KD from equilibrium responses, 1:1 model; conditions: both partners purified
T1 construct: also called mCaM; CaM; source: E. coli BL21 (DE3) pLysS, purified (Phenyl Sepharose)

mouse calmodulin [2] = molecular target: T1, mouse calmodulin; assay: pull-down; His-tagged ySUMO-fusion protein on Ni-NTA Superflow, ySUMO portion denatured with 6 M guanidine chloride; 0.6 μM mCaM in +Ca2+ buffer (150 mM NaCl, 0.1% Tween 20, 1 mM CaCl2, pH 7.5), 4°C, 2 h; CaM detected by western blot; conditions: both partners purified

B1: biotin-mT1r2 CT peptide (cytosolic C-terminal region of mouse taste receptor type 1 subunit 2) (peptide)
peptide: Biotin-GGSGGSPKCYMILFYPERNTSAYFNSMIQGYTMRKS
notes: N-terminal linker segment; mouse T1r2, cytosolic C-terminal region as defined by TMHMM, residues 814-843; source: synthetic peptide (Hokkaido System Science, ~90% purity)
Binder B1 has a Kd (mouse calmodulin [1]) of 27 µM.

B2: FLAG-ySUMO-mT1r2 CT (domain or fragment)
chain: PKCYMILFYPERNTSAYFNSMIQGYTMRKS
notes: mouse T1r2, cytosolic C-terminal region (CT), residues 814-843; On the Ni-NTA beads the ySUMO portion was denatured with 6 M guanidine chloride before mCaM was added; also called ySUMO-fusion protein of the mT1r2 C-terminal region; source: E. coli BL21 (DE3), purified (Ni-NTA); not shown: FLAG, N-terminal, kept; ySUMO, N-terminal, kept; His8, C-terminal, kept
B2: binds (mouse calmodulin [2]).

B3: FLAG-ySUMO-mT1r1 CT (domain or fragment)
chain: PKCYVILCRPELNNTEHFQASIQDYTRRCGTT
notes: mouse T1r1, cytosolic C-terminal region (CT), residues 811-842; On the Ni-NTA beads the ySUMO portion was denatured with 6 M guanidine chloride before mCaM was added; also called ySUMO-fusion protein of the mT1r1 C-terminal region; source: E. coli BL21 (DE3), purified (Ni-NTA); not shown: FLAG, N-terminal, kept; ySUMO, N-terminal, kept; His8, C-terminal, kept
B3: binds (mouse calmodulin [2]).
